Data: article PMC7190278 (Cell, 2020)
Where a chain is given by its changes, count along the chain named. In names and notes the source's numbering stands. Where no end group is shown, it is not given here. [ ]: non-standard residue; d: D form. pS = N[C@@H](COP(=O)(O)O)C(=O)O

T1: HA-tagged human NPM2 (nucleoplasmin 2) (human, UniProt Q86SE8 1-214)
T1 sequence (looked up): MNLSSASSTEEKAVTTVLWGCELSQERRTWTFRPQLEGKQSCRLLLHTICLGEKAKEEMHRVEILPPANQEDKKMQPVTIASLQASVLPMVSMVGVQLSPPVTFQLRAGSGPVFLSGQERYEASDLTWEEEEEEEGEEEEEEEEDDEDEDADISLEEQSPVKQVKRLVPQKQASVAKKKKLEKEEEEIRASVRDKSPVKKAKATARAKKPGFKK

B1: Protamine 1 (P1), wild type, not phosphorylated (peptide, UniProt P02319 1-51, looked up)
chain: MARYRCCRSKSRSRCRRRRRRCRRRRRRCCRRRRRRCCRRRRSYTIRCKKY
B2: Protamine 1 (P1) S9A S43A double mutant (peptide, UniProt P02319 1-51, looked up)
chain: B1 chain with S9A, S43A
B3: Protamine 1 (P1) S9A, not phosphorylated (peptide, UniProt P02319 1-51, looked up)
chain: B1 chain with S9A
B4: Protamine 1 (P1) S43A, not phosphorylated (peptide, UniProt P02319 1-51, looked up)
chain: B1 chain with S43A
B5: Protamine 1 (P1) S43A, phosphorylated by SRPK1 (peptide, UniProt P02319 1-51, looked up)
chain: MARYRCCR[pS]KSRSRCRRRRRRCRRRRRRCCRRRRRRCCRRRRAYTIRCKKY
modifications: cysteine pairing not given here
B6: Protamine 1 (P1) S9A, phosphorylated by SRPK1 (peptide, UniProt P02319 1-51, looked up)
chain: MARYRCCRAKSRSRCRRRRRRCRRRRRRCCRRRRRRCCRRRR[pS]YTIRCKKY
modifications: cysteine pairing not given here
B7: Protamine 1 (P1), wild type, phosphorylated by SRPK1 (peptide, UniProt P02319 1-51, looked up)
chain: MARYRCCR[pS]KSRSRCRRRRRRCRRRRRRCCRRRRRRCCRRRR[pS]YTIRCKKY
modifications: cysteine pairing not given here

Molecular target: T1, HA-tagged human NPM2 (nucleoplasmin 2)
Assay: pull-down

Binding result, binds:
B1
B2
B3
B4
B5
B6
B7

Molecular target: HA-tagged human HIRA (human, UniProt P54198 1-1017)
Sequence (P54198 whole entry): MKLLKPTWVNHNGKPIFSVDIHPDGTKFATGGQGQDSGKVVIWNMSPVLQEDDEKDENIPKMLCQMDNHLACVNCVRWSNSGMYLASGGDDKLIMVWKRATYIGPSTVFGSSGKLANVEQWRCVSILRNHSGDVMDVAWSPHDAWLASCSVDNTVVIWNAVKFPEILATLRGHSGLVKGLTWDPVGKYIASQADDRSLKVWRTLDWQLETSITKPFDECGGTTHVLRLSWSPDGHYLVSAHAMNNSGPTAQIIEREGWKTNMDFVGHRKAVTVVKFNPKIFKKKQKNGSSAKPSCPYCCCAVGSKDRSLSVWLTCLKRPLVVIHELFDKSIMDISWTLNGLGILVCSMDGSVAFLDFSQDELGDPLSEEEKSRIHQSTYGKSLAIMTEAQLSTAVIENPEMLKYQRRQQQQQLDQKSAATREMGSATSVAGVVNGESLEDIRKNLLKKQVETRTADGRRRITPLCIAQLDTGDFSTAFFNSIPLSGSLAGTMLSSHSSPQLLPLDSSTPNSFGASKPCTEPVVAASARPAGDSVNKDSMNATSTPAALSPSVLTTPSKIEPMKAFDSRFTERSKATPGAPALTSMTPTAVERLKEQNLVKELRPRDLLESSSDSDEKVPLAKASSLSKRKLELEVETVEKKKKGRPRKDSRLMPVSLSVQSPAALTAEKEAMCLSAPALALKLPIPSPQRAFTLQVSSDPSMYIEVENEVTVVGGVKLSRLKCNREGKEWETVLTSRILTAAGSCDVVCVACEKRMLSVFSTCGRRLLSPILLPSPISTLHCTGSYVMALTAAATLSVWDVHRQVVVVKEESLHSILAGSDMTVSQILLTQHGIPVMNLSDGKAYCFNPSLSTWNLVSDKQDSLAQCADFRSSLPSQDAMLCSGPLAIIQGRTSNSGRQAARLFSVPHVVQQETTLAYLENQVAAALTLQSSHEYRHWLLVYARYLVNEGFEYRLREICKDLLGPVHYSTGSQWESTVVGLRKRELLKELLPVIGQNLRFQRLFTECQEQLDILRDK
Assay: pull-down

Binding result, binds:
B5
B6
